Data set [1] deals with T1, MBP-TAp63γ (Mus musculus), O88898-5.
T1 sequence: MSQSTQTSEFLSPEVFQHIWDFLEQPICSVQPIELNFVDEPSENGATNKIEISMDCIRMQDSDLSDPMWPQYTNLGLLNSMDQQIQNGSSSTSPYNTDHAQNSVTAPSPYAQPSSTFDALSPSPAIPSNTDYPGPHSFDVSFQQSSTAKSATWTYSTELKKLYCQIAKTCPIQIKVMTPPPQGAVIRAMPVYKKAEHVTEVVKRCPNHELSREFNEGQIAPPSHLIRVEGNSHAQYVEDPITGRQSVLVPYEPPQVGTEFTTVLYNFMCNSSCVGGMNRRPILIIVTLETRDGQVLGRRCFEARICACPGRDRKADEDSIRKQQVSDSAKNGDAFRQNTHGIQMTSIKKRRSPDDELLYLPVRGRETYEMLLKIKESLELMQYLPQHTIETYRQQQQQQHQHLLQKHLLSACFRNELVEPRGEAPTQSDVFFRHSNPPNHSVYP
The data set is described as follows: fluorescence anisotropy. As to conditions: 10 mM potassium phosphate pH 7.6, 200 mM NaCl, room temperature, 30 min, 15 nM p21 DNA (300 nM for controls), protein 0.1-15 µM monomer. On the technique in general: Fluorescence polarisation rises when a labelled molecule tumbles more slowly, as on binding a larger partner.

Data set [2] deals with T2, MBP-TAp63αFTL (Mus musculus) (UniProt O88898).
T2 sequence: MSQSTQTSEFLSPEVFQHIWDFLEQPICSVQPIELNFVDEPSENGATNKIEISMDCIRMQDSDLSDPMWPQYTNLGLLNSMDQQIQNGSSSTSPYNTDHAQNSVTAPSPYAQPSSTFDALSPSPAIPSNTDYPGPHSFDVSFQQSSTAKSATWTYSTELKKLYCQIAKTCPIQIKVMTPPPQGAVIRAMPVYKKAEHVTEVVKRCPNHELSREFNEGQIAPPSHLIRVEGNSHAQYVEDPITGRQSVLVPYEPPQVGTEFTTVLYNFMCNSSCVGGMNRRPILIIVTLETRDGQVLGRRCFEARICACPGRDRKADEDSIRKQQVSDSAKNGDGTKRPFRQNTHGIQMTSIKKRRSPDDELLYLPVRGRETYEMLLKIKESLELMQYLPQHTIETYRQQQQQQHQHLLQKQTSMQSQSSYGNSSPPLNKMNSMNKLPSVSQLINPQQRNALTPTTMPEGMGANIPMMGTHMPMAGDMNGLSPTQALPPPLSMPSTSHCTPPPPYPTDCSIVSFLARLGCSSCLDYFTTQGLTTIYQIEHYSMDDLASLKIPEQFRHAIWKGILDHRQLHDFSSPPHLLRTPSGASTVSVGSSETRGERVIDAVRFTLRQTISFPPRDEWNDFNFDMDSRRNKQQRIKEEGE
Description: fluorescence anisotropy. As to conditions: 10 mM potassium phosphate pH 7.6, 200 mM NaCl, room temperature, 30 min, 15 nM p21 DNA (300 nM for controls), protein 0.1-15 µM monomer.

Data set [3] has as its target His-MBP-ΔNp63α^PPR (mouse). Description: SEC; purified proteins from E. coli, 3–15 μM, Superose 6 10/300 GL, 16°C, 10 mM potassium phosphate pH 7.6, 200 mM NaCl; column calibrated with globular standards. A general note: Size exclusion chromatography separates by hydrodynamic size, large species first.
Data set [4] concerns the target MBP-TAp63α (mouse). Described as above.
The target of data set [5] is MBP-TAp63α (mouse). Description: AUC; sedimentation velocity, 45,000 rpm, 4 μM protein, 4°C, 20 mM potassium phosphate pH 7.5, 200 mM NaCl, 2 mM dithiothreitol.
Data set [6] has as its target MBP-TAp63α (mouse). The data set is described as follows: native MS; LILBID-MS, ~10 μM protein dialyzed against 10 mM potassium phosphate pH 7.6 without NaCl.
For data set [7], the target named is MBP-TAp63α (mouse). Description: SEC-MALS; Superdex 200 5/150 GL, room temperature, 80 μl of purified protein of ~1 mg/ml, 0.3 ml/min.
Data set [8] has as its target MBP-TAp63α (mouse). The data set is described as follows: AUC; sedimentation equilibrium, 7000 and 9000 rpm, 1–8 μM monomer, 4°C, 20 mM potassium phosphate pH 7.5, 200 mM NaCl, 2 mM dithiothreitol.
Data set [9] addresses TAp63α (murine, N-terminal His6-tag, from pBH4) (mouse). The data set is described as follows: SEC; purified proteins from E. coli, 3–15 μM, Superose 6 10/300 GL, 16°C, 10 mM potassium phosphate pH 7.6, 200 mM NaCl; column calibrated with globular standards.
Data set [10] has the same target. The data set is described as follows: SEC-MALS; Superdex 200 5/150 GL, room temperature, 80 μl of purified protein of ~1 mg/ml, 0.3 ml/min.
Data set [11] deals with p63 (Homo sapiens) (UniProt Q9H3D4). As to conditions: cited from earlier work.
Setting [12] is: second binding site of two-site fit, suggested unspecific.
Where [13] appears, read: two-site fit, first site, monomer concentration.

A word on the Kd: it is the equilibrium constant for the complex coming apart. The stoichiometry N is a count of units in the complex or per binding partner.

p63, sequence (Q9H3D4 whole entry): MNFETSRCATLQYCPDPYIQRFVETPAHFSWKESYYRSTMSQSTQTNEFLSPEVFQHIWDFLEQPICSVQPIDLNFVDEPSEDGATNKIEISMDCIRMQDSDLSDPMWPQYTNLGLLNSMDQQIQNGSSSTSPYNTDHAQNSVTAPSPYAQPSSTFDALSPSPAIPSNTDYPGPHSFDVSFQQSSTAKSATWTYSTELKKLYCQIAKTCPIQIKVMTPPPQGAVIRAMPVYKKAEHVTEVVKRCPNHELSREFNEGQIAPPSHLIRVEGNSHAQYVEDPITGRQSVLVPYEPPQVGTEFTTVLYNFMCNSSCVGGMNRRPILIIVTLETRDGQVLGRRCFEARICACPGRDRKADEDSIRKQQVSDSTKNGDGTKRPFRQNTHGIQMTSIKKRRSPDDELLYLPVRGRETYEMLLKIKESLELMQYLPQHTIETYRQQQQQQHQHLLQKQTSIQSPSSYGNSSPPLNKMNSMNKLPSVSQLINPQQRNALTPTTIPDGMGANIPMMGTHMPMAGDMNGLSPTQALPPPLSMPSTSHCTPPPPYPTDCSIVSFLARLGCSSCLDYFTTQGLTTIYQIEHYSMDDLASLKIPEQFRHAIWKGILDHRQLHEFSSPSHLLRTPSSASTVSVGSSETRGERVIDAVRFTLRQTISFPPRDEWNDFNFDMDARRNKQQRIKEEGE

For the substance “GGCAGGAACATGTCCCAACATGTTGAGCCG (double strand) [p21 promoter response element]”, the Kd stood at 20800 nM in data set [1] (setting [12]), 340 nM in [1] (setting [13]), 47100 nM in [2] (setting [12]) and 380 nM in data set [2] (setting [13]).
With His-MBP-ΔNp63α^PPR (natural protein), the stoichiometry N in data set [3] was determined as 4.
MBP-TAp63α (natural protein): the stoichiometry N in data set [4], in [5], in data set [6], in [7] and in data set [8] was 2 in each case.
With “TAp63α (murine, N-terminal His6-tag, from pBH4) (natural protein)”, the stoichiometry N in data set [9] and in [10] was 2 in each case.
Consider p63 (from UniProt Q9H3D4), for which, in [11], the Kd was 12 nM.

These data come from article PMC3087504.
